# Experimental data from patent US20160362487A1 (Regeneron, published 2016).
# Numbering of substitutions follows the chain as printed. In names and notes the source's numbering stands.
# T1: cynomolgus monkey IL-33 expressed with a C-terminal hexahistidine tag (cynomolgus monkey)
# T1 construct: also called MfIL-33-6His; Mf-IL-33-6His
# T1 chain: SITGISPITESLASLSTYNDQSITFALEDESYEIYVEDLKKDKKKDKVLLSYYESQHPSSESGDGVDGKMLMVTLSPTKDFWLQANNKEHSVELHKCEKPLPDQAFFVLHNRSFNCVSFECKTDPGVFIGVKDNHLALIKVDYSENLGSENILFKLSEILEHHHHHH
# T2: human IL-33 (R&D Systems, #3625-IL-010/CF) (human, UniProt O95760 112-270)
# T2 sequence (looked up): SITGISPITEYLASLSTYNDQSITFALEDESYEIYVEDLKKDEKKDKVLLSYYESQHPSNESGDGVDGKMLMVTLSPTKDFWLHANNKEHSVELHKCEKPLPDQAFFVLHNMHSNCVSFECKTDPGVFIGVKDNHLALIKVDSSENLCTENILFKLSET
# B1: H4H9670P (antibody, V domains shown)
# VH: EVQLVESGGGLVQPGGSLRLSCAASGFTLSSYAMSWVRQAPGKGLEWVSAISGSGGSTYYADSVKGRFTISRDNSKNSLYLQLNSLRAEDTAVYYCAKTLYTTSWYGGFQHWGQGTLVTVSS
# VL: DIQMTQSPSSVSASIGDRVTITCRASQGISSWLAWYQQKPGKVPKLLIYAASSLQSGFPSRFSGSGSGTDFTLTISSLQPEDFATYYCQQTHSFPWTVGQGTKVEIK
# notes: Human IgG4 Fc (H4H)
# B2: H1M9565N (antibody, mouse IgG1, V domains shown)
# VH: QVTLKESGPVLVKPTESLTLTCSVSGFSLSNVRMGVSWIRQSPGKALEWLAHIFSNDEKSYTTSLKTRLTISKDTSRSQVVLTMTDMDPGDTATYYCARIRNLAFNYWGQGTLVTVSS
# VL: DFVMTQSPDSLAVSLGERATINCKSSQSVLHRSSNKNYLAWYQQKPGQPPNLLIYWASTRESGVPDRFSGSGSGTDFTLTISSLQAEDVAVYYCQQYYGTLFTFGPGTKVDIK
# notes: Human variable domains, mouse IgG1 Fc (H1M)
# B3: H1M9568N (antibody, mouse IgG1, V domains shown)
# VH: QVLLVQSGAEVKKPGATVKVSCKASGSTFTGYYMHWVRQAPGQGLEWMGWINPNNGGTNYAQKFQGRVTMTRDTSISTAYMELSRLRSDDTAVYYCARELRYNWKSWGQGTLVTVSS
# VL: EIVLTQSPGTLSLSPGERVTLSCRASQSVGRPYLAWYQQIPGQAPRLLIYGASSRATDIPDRFSGNGSGTDFTLTISRLEPEDFAVYYCQQYDNSPYTFGQGTRLEIK
# notes: as for B2
# B4: H1M9559N (antibody, mouse IgG1, V domains shown)
# VH: QVQLVESGGGVVQPGRSLRLSCAASGFTFSSYGMHWVRQAPGKGLEWVAVIWYDGRNKYYTDSVKGRFTISRDNSKNTLYLQMDSLRAEDTAVYYCARERYISSYYGGFDPWGQGALVTVSS
# VL: DIQMTQSPSSVSASVGDRVTITCRASQGISSWLAWYQQKPGKAPKVLIYAASSLQSGVPSRFSGSGSGTDFTLTISSLQPEDFATYYCQQANSFPFTFGPGTKLDIK
# notes: as for B2
# B5: H4H9672P (antibody, human IgG4, V domains shown)
# VH: EVQLVESGGGLVQPGGSLRLSCAASGFTLRSYVMYWVRQGPGKGLEGVSGISGSSGGTYYTDSVKGRFTISRDNSKNTLFLQMNSLRAEDTAVYFCARSVYSTTWYGGFQHWGQGTLVTVSS
# VL: DIQMTQSPSSVSVSVGDRVTITCRASQVISSWLAWYQLKPGKAPKLLIYAASSLQSGVPSRFSGSGSGTDFTLTISGLQPEDFAVYYCQQTNSFPLTFGGGTKVEIK
# notes: Human IgG4 Fc (H4H)
# B6: H4H9676P (antibody, human IgG4, V domains shown)
# VH: EVQLVESGGGLVQPGGSLRLSCSASGFTFSSYAMNWVRQAPGKGLEWVTAISGSGGGTYYADSVKGRFTISRDNSKNSLFLQLNSLRAEDTAVYYCAKQTYTSSWYGGFDIWGQGTMVTVSS
# VL: B4 VL with I29F, K39I, V46L, S53R, S63R, F96L, P100G, L104V, D105E
# notes: Human IgG4 Fc (H4H)
# B7: H4H9666P (antibody, human IgG4, V domains shown)
# VH: QVQLVQSGAEVKKPGASVKVSCKASGYTFTSYGISWVRQAPGQGLEWMGWIRAYNGYTNYAQKFQGRVTMTTDTSTNTAYMELRTLNSDDTAVYYCARDRYSGSFHGNFDYWGQGTLVTVSS
# VL: B4 VL with S30F, S53N, Q55E, F94L, F96L, P100G, L104V, D105E
# notes: Human IgG4 Fc (H4H)
# B8: H1M9566N (antibody, mouse IgG1, V domains shown)
# VH: EVQLLESGGDLVQPGGSLRLSCAASGFTFSSYAMSWVRQAPGKGLEWVSVISGSGSSTDYADSVKGRFTISRDNSRDTLHLQMNSLRAEDTAVYYCAKTFYYFYGLDVWGQGTTVTVSS
# VL: DIQMTQSPSSLSASLRDRVTITCRASQGISNYLAWYQQKPGKVPKVLIYAASTLQSGVPSRFSGSGSGTVFTLTISSLQTEDVATYYCQKYSSAPFTFGPGTKVDIK
# notes: as for B2
# B9: H4H9629P (antibody, human IgG4, V domains shown)
# VH: EVQLVESGGGLVQPGGSLRLSCAASGFTFRSFAMSWVRQAPGKGLELVSDLRTSGGSTYYADSVKGRLTISRDNSKNTLYLQMNSLRAEDTAVYYCAKSHYSTSWFGGFDYWGQGTLVTVSS
# VL: B4 VL with I29F, V46L, S76T, S77N, F96L, P100G, L104V, D105E
# notes: Human IgG4 Fc (H4H)
# B10: H4H9633P (antibody, human IgG4, V domains shown)
# VH: EVQLVESGGGLVQPGGSLRLSCAASGFTFSSYVMSWVRQAPGKGLEWVSSISGNGGSTNYADSVKGRFTISRDNSKNTLFLEMNSLRAEDTAVYYCAKSLGTTTTFLGFDYWGQGTLVTVSS
# VL: B4 VL with V46L, D70Y, F96L, P100G, L104V, D105E
# notes: Human IgG4 Fc (H4H)
# Target: T1, cynomolgus monkey IL-33 expressed with …
# Test: competition ELISA, 150 pM MfIL-33-6His on coated hST2-hFc
# Procedure: The ability of anti-IL-33 antibodies to block either human IL-33 (hIL-33) or cynomologus monkey IL-33 binding to the human ST2 receptor was measured using a competition sandwich ELISA. […] The antibody/IL-33 mixtures were incubated for 1 hour at room temperature before they were transferred to the hST2-hFc-coated microtiter plates. After incubating for 1 hour at room temperature, the wells were then washed, and plate-bound biotin-hIL-33 was detected with streptavidin conjugated with horse-radish peroxidase (HRP) (Thermo Scientific, Cat # N200), and plate-bound MfIL-33-6His was detected with a HRP conjugated anti-His monoclonal antibody (Qiagen, #34460). All samples were developed with a TMB solution (BD biosciences, #51-2607KC) to produce a colorimetric reaction and then quenched by acidification with 1M sulfuric acid before measuring absorbance at 450 nm on a Victor X5 plate reader. Data analysis was performed using a sigmoidal dose-response model within Prism™ software. […] Percent blockade was calculated as the ratio of the reduction in signal observed in the presence of antibody relative to the difference between the signal with IL-33 alone and background (signal from HRP-conjugated secondary antibody or streptavidin alone). The absorbance measured for the constant concentration of biotin-hIL-33 or MfIL-33-6His alone is defined as 0% blocking and the absorbance measured for no added IL-33 is defined as 100% blocking.
% Maximum blocking,IC50,Binder
69%,3.5 nM,B1
86%,12 nM,B2
38%,0.84 nM,B3
53%,10 nM,B4
48%,5.5 nM,B5
57%,3.2 nM,B6
40%,13 nM,B7
41%,0.22 nM,B8

# Target: T2, human IL-33 (R&D Systems, …)
# Test: cell-based or functional assay
"IC50, blocking of IFN-γ release from human PBMC induced by 260 pM hIL-33, donor #603486","IC50, blocking of IFN-γ release from human PBMC induced by 260 pM hIL-33, donor #603487",Binder
8.15e-10 M,5.21e-09 M,B9

# Target: T1, cynomolgus monkey IL-33 expressed with …
# Test: BLI; captured MfIL-33-6His, mAb-1 step with Isotype control
# Procedure: Binding competition between a panel of different anti-IL-33 monoclonal antibodies was determined using a real time, label-free bio-layer interferometry assay on an Octet® HTX biosensor (ForteBio, A Division of Pall Life Sciences). The experiment was performed at 25° C. using a buffer of 0.01M HEPES pH7.4, 0.15M NaCl, 3 mM EDTA, 0.05% v/v Surfactant Tween-20, and 0.1 mg/ml BSA (HBS-ET kinetics buffer) with the plate shaking at a speed of 1000 rpm. […] The antigen-captured biosensors were then saturated with a first anti-IL-33 monoclonal antibody (subsequently referred to as mAb-1) by immersion into wells containing 50 μg/mL solution of mAb-1 for 5 minutes. The biosensors were then dipped into wells containing a 50 μg/mL solution of a second anti-IL-33 monoclonal antibody (subsequently referred to as mAb-2) for 4 minutes. The biosensors were washed in HBS-ET kinetics buffer in between every step of the experiment. The real-time binding response was monitored during the experiment, and the maximum binding response for each binding step was recorded. The response of mAb-2 binding to MfIL-33-6His pre-complexed with mAb-1 was measured, and competitive/non-competitive behavior of different anti-IL-33 monoclonal antibodies with respect to each other was determined.
row,mAb-2 Binding to the Pre-complex of mAb-1 & MfIL-33-6xHis,Binder
1,0.23 nm,B1
2,0.34 nm,B2
3,0.34 nm,B3
4,0.26 nm,B9
5,0.21 nm,B4
6,0.25 nm,B5
7,0.25 nm,B6
8,0.28 nm,B10
9,0.28 nm,B7
10,0.38 nm,B8

# Target: T2, human IL-33 (R&D Systems, …)
# Test: SPR 37C, pH6.0 chase, mAb captured
# Procedure: (§1) Equilibrium dissociation constants (KD values) for IL-33 binding to purified anti-IL-33 monoclonal antibodies were determined using a real-time surface plasmon resonance biosensor using a Biacore 4000 instrument. The Biacore sensor surface was first derivatized by amine coupling with either a polyclonal rabbit anti-mouse antibody (GE, # BR-1008-38) or with a monoclonal mouse anti-human Fc antibody (GE, # BR-1008-39) to capture anti-IL-33 monoclonal antibodies expressed with mouse or with human IgG4 constant regions, respectively. All Biacore binding studies were performed in 0.01M ADA pH 7.4, 0.15M NaCl, 3 mM EDTA, and 0.05% v/v Surfactant Tween-20 (ABS-ET running buffer). […] Association of either hIL-33 or MfIL-33-6His to the captured monoclonal antibody was monitored for 4 minutes and their dissociation in ABS-ET running buffer was monitored for 10 minutes. The effect of reduced pH on the binding of each anti-IL-33 antibody to either hIL-33 or MfIL-33-6His was studied using an in-line pH chase assay format in 0.01M ADA pH 6.0, 0.15M NaCl, 3 mM EDTA, and 0.05% v/v Surfactant Tween-20 (ABS-ET pH6 buffer). To achieve this, association of either hIL-33 or MfIL-33-6His to the captured monoclonal antibody was monitored for 4 minutes in ABS-ET running buffer. Following a 30 second dissociation of either hIL-33 or MfIL-33-6His in ABS-ET running buffer, ABS-ET pH6 buffer was injected for 3 minutes, and the analyte dissociation under the low-pH conditions was measured. All the binding kinetic experiments were performed at both 25° C. and 37° C. Kinetic association (kₐ) and dissociation (kd) constants were determined by fitting the real-time sensorgrams to a 1:1 binding model using Scrubber 2.0c curve fitting software. Binding dissociation equilibrium constants (KD) and dissociative half-lives (t½) were calculated from the kinetic rate constants as: […]
koff,t½,t½ Ratio (pH 7.4/pH 6.0),Binder
0.00383 s⁻¹,3 min,4.9,B1
0.0011 s⁻¹,10 min,1.1,B3
0.00582 s⁻¹,2 min,9,B9
0.000992 s⁻¹,12 min,1,B4
0.00541 s⁻¹,2 min,4.7,B5
0.00524 s⁻¹,2 min,4.1,B6
0.0024 s⁻¹,5 min,3.5,B10
0.0068 s⁻¹,2 min,8.8,B7
0.000967 s⁻¹,12 min,3.4,B8

# Target: T1, cynomolgus monkey IL-33 expressed with …
# Test: SPR 37C, pH6.0 chase, mAb captured
# Procedure: as §1
koff,t½,t½ Ratio (pH 7.4/pH 6.0),Binder
0.00165 s⁻¹,7 min,0.3,B1
0.000228 s⁻¹,51 min,1.1,B2
0.00224 s⁻¹,5 min,1.3,B3
0.00307 s⁻¹,4 min,0.9,B4
0.00115 s⁻¹,10 min,2.9,B8
